According to the RNAGym collection of RNA variant scans (doi:10.1073/pnas.2313332121):

B1: TPR t1 (parent)
chain: GACCAAUCUGCCCUCAGAGCUCGAGAACAUCUUCGGAUGCAGAGGAGGCAGGCUUCGGUGGCGCGAUAGCGCCAACGUCCUCAACCUCCAAUGCAUCCCACCACAUGAUGAUGCCUGAAGAGCCUUGGUUUUUUG

Variants of: B1
Assay: polymerase ribozyme fitness, log enrichment relative to wild type (log ratio); higher = more active; in vitro selection for triplet polymerase activity
Outline: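 The heterodimeric triplet polymerase ribozyme's subunits were each mutagenized into PCR-built libraries and transcribed. Every library was selected once, in triplicate, by annealing with a biotinylated primer, the partner subunit and triplets, incubating frozen at −7 °C, gel-excising extended constructs, capturing on streptavidin beads and running RT-PCR. Input and output libraries were Illumina-sequenced, with genotypes kept only at ≥10 input reads and ≥1 read per output. Fitness, from inverse-variance-weighted replicate averages, is the base-2 logarithm of genotype enrichment over wild-type enrichment.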

Variant	polymerase ribozyme fitness (log ratio)
GACCAAUCUGCCCUCAGAGUUCGAGAACAUCUUCGGAUGCAGGGGAGGCAGGCUUCGGUGGCGCGAUAGCGCCAACGUCCUCAACCUCCAAUGCAUCCCACCACAUGAUGACGCCUGAAGAGCCUUGGUUUUUUG [C20U A43G U112C]	-0.81
GACCAAUCUGCCCUCAGAGCUCGAGAACAUCUUCGGAUGCAGAGGAGGCAGGCUUCGGUGGCGCGAUAGCGCCAACGUCCUCAACCAACAAUGCACCCCACCACAUGAUGAUGCCUGAAGAGCCUUGGUUUUUUG [U87A C88A U96C]	-1.02
GACCAAUCUGCCCUCAGAGCUCGAGAGCAUCUUCGGAUGCAGAGUCGGUAGGCUUCGGUGGCGCGAUAGCGCCAACGUCCUCAACCUCCAAUGCAUCCCACCACAUGAUGAUGCCUGAAGAGCAUUGAUUUUUUG [A27G G45U A46C C49U C124A G128A]	-5.34
GACCAAUCUGCCCUCAGAGCUCGAGAACAUCUUCGGAUGCAGAGGAGGCAGGCUUGGGUGGCGCGAUAGCGGCAACGUCCUCAACCUCCAAUGCAUCCCACCACAUGAUGAUGCAUGAAGAGCCUUGGUUUUUUG [C56G C72G C115A]	-2.98
GACCAAUCUGCGAUCAGAGCUCGAGAACAUCUUCGGAUGCAGAGGAGGCAGGCUUCGGUGGCGCGAUAGCGGCAACGUCCUCAACCUCCAAUGCAUCCCACCACAUGAUGAUGCCUGAAGAGCUUUGGUUUUUUG [C12G C13A C72G C124U]	-0.0514
GACCAAUCUGCCCUCAGAGCUCGAGAACAUCUUCGGAUGCAGAGGAGGCAGGCUUCGGUGGCGCGAUAGAGCCAACGUCCUCAACCUCCAAUGCAUCCCACCACAUGAUGAUGCCUGAAAAGCCUUGGUUUUUUG [C70A G120A]	-0.62
GACCAAUCUGCCCUCAGAGAUCGAGAACAUCUUCGGAUGCAGAGGAGGCAGGCUUCGGUGGCGCGAUAGCGCCAACGUCCUCAACCUCCAAGGCAUCCCACCACAUGAUUAUGCCUGAAGAGCCUUGGUUUUUUG [C20A U92G G110U]	-5.28
GACCAAUCUGCCCUCAGGGCUCGAGAACAUCUUCGCAUGCAGAGUAGGCAGGCUUCGGUGGCGCGAUAGCGCCAACGUCCUCAACCUCCAAUGCAUCCCACCACAUGAUGAAGCCUGAAGAGCCUUGGUUUUUUG [A18G G36C G45U U112A]	-2.4
GACCAAUCUGCCCUCAGAGCUCGAGAACAUCUUCGGAUGCAGAGGAGGCAGGCUUCGGUGGCGCGAUAGCGCGAACGUCCUCAACCUCCAAUGCAUCCCACCACAUGAUAAUGCCUGAAGAGCCUUGGUUUUUUG [C73G G110A]	-1.17
GACCAAUCUGCCCUCAGAGCUCGAGAACAUCUUCGGAUGCAGAGGAGGCAGGCUUCGGUGGCGCGAUAUCGCCAACGUCCUCAACCUCCAUUGCAUCCUACCACAUGAGGAUGCCUGAAGAGCCUUGGUUUUUUG [G69U A91U C99U U109G]	-3.63
GACCAAUCUGCCCUCAGAGCUCGAGAUCAUCAUCGGAUGCAGAGGAGGCAGGCUUCGGUGGCGCGAUAGCGUCAACGUCCUCAACCUCCAAUGCAUCCCACCACAUGAUGAUGACUGAAGAGCCUUGGUUUUUUG [A27U U32A C72U C114A]	-5.96
GACCAAUCUGCUCUCAGAGCUCGAGAACAUCUUCGGAUGCAGAGGAGGCAGGUUUCGGUGGCGCGAUAGCGCCAACGUCGUUAACCUCCGAUGCAUCCCACCACAUGAUGAUGCCUGAAGAGCCUUGGUUUUUUG [C12U C53U C80G C82U A90G]	-2.24
GACCAAUCUGCCAUCAGAGCUCGAGAACAUCUUCGGAUGAAGAGGAGGCAGGCUUUGGUGGCGCGAUAGCGCCAACGUCCUCAACCUCCAAUGCAUCCCACCACAUGAUGAUGCCUGAAGAGCCUUGGUUUUUUG [C13A C40A C56U]	-2.79
GACCAAUCUGCACUCAGAGAUCGAGAACAUCUUCGGAUGCAGAGGAGGCAGGCUUCGGUGACGCGAUAGCGCCAACGUCCUCAACCUUCAAUGCAUCCCACCACAUGAUGAUGCCCGAAGAGCCUUGGUUUUUUG [C12A C20A G61A C88U U116C]	-4.6
GACCAAUCGGCCCUCAGUGCUCGAGAACAUCUUCGGAUGCAGAGGAGGAAGGCUUCGGUGGCGCGAUAGCGCCAACGUCCUCAACCUCCAAUACAUCCCACCACAUGAUCAUGCCUGAAGAGCCUUGGUUUUUUG [U9G A18U C49A G93A G110C]	-5.65
GACCAAUCUGACCUUAGAGCUCGAGAACAUCUUGGGAUGCAGAGGAGGCAGGCUUCGGUGGGGCGAUAGCGCCAACGUCCUCAACCUCCAAUGCUUCCCACCACAUGAUUAUGCCUGAAAAGCCUUGGUUUUUUG [C11A C15U C34G C62G A95U G110U G120A]	-7.3
GGCCAAUCUGCCCUCAGAGCUCGAGAACAUCUUCGGAUGAAGAGGAGGCAGGCUUCGAUGGCGCGAUAGCGCCAACGUCCUCAACCUCCAAUGCAUCCCACCACAUGAUGAUGCCUGAAGAGCCUUGGUUUUUUG [A2G C40A G58A]	-1.21
GACCAAUCUGCCCUCAGAGCUCGAGAACAUCUUCGGAUGCUGAGGAGGCAGGCUUUGGUGGCGCGAUAGCGCCAACGGCCUCAACCUCCAAUGCAUCCCACCACAUGAUGAUGCCUGAAGAGCCUUGGUUUUUUG [A41U C56U U78G]	-1.47
GACCAAUCUGCCCUCAGAGCUCGAGAACAUCUUCGGAUGCAGAGGAGGCAGGCUUCGGUGGCGCGAUAGCGCCAACGUCCUCAACCACCAAUGCAUCCCACCACAUGAUGAUGACUGAAGAGCCUUGGUUUUUUG [U87A C114A]	-2.58
GACCAAUCUGCCCGCAGAGCUUGAGAACGUCUUCGGAUGCAGAGGAGGCAGGCUUCGGUGACGCGAUAGCGCCAACGUCCUCAACCUCCAAUGCAUCCCACCACAUGAUGAUGCCUGAAGAGCGUUGGCUUUUUG [U14G C22U A29G G61A C124G U129C]	-4.06
GACCAAUCUGCCCUCAGAGCACGGGAACAUCUUCGGAUGCAGAGGAGGCAGGCUUCGGUGGCGCGAUAGUGCCAACGUCCUCAACCUCCAAUGCAUCCCACCACAUGAUGAUGCCUGAAGAGCCUUGGUUUUUUG [U21A A24G C70U]	-2.2
